# Measured values: US20240294635A1 (CHIA TAI TIANQING PHARMACEUTICAL GROUP, published 2024)
# Residue numbers refer to the chain shown, from its start. Names and notes keep the numbering of the source.
# B1: Xi2H8 (antibody, human IgG4 S228P, kappa, V domains shown)
# VH: QVQLKESGPGLVAPSQSLSITCTVSGFSLTNYGVHWVRQPPGKGLEWLGIIWAGGSTNYNSALMSRLSISKDNSKSQVFLKMNSLQTDDTAMYYCARDDYASMDYWGQGTSVTVSS
# VL: DAFMTQTPLSLPVSLGDQASISCRSSQSLVHSNGNTYLHWYLQKPGQSPKLLIYKVSNRFSGVPDRFSGSGSGTDFTLKISRVEAEDLGVYFCSQSTHVPYTLGGGTKLEIKR
# notes: mouse variable regions on human IgG4 (EU S228P) and human kappa constant regions; also called chimeric 2H8 antibody
# B2: Xi16E5 (antibody, human IgG4 S228P, kappa, V domains shown)
# VH: EVQLQQSGPELKKPGETVKISCKASGYTFTNYGMNWVKQVPGKGLKWMGWINTNTGEPTYAEEFKGRFAFSLETSARTAFLQINNLKNEDTATYFCTRFSHLRGPMDYWGQGASVTVSS
# VL: B1 VL with F3V, N35Y, V83L, Y101P, L103F
# notes: mouse variable regions on human IgG4 (EU S228P) and human kappa constant regions; also called chimeric 16E5 antibody
# B3: Xi3F10 (antibody, human IgG4 S228P, kappa, V domains shown)
# VH: EVQLQQSVAELMKPGASVKIYCKATGYTFSRYWIEWVKQRPGHGLEWIGEFIPGSDTTNFNEKFKGKATFTAEISSNTAYMQLSSLTSEDSAVYFCARGGLRRMDYWGQGTSVTVSS
# VL: DIVMTQTPAIMSASPGEKVTMTCRASSSVSSTYLHWYQQKSGASPKLWIYTTSTLASGVPARFSGSGSGTSYSLTISSVEAEDAATYYCQQFSDSTWTFGGGTKLEIKR
# notes: mouse variable regions on human IgG4 (EU S228P) and human kappa constant regions; also called chimeric 3F10 antibody
# Legend:
# [1] = biological target: T1, human CD47 protein, His Tag (ACRObiosystems, Cat. No. CD7-H5227) (human, UniProt Q08722 19-139); assay: ELISA, CD47-His coated, competition with Human-SIRPα-mFc; Blocking ELISA; CD47-His coated on plate, SIRPα-mFc bound first, antibody from 20 µg/mL, mouse Fc detected
# T1 construct: bought reagent; also called CD47-His; hCD47-His Tag; not shown: His tag
# CD47 on HL60 cells = CD47 on HL60 cells (UniProt Q08722 19-323, limits assumed); assay: cell-based or functional assay
# [2] = biological target: T2, cynomolgus/rhesus macaque CD47 protein, His Tag (ACRObiosystems, Cat. No. CD7-C52H1) (cynomolgus monkey (cynomolgus/rhesus …, UniProt A0A2K5X523 19-141)); assay: Biacore SPR, 25 C, antibody captured on CM5 chip
# T2 construct: bought reagent; also called Cynomolgus monkey CD47 protein
# CD47 on Jurkat cells = biological target: T3, CD47 on Jurkat cells (UniProt Q08722 19-323, limits assumed); assay: flow cytometry on Jurkat cells, competition with Human-SIRPα-mFc
# T3 construct: whole, on cells; Jurkat is a human T cell line
# Experimental: The plate was incubated at room temperature for 1 h. After the plate was washed twice with PBS buffer, 100 μL of anti-CD47 chimeric antibodies (Table 7) was added to each well. 4-fold dilution was performed with PBS buffer from a starting concentration of 20 μg/mL, with 8 gradients obtained. The plate was incubated at room temperature for 1-2 h. […] The plate was incubated at room temperature for 1 h and washed 3 times with PBS buffer.
# [3] = biological target: T4, CD47 on the red cell surface (Homo sapiens (Human), UniProt Q08722 19-323); assay: flow cytometry on fixed red cells, antibody 10 µg/mL
# Experimental: (§1) Anticoagulated blood was collected and well mixed with an equal amount of normal saline. The mixture was centrifuged at 2000 rpm/min for 5 min, and the supernatant was removed. […] In the first two washings, the mixture was centrifuged at 2000 rpm/min for 5 min, and in the last washing, the mixture was centrifuged at 2000 rpm/min for 10 min, and the supernatant was removed.
# [4] = biological target: T4, CD47 on the red cell surface; assay: flow cytometry on fixed red cells, antibody 1 µg/mL
# Experimental: as §1
# [5] = biological target: T1, human CD47 protein, His Tag …; assay: Biacore SPR, 25 C, antibody captured on CM5 chip; Biacore at 25 C; antibody captured on the chip, soluble CD47-His as analyte
# [6] = biological target: T1, human CD47 protein, His Tag …; assay: Biacore SPR, 25 C, antibody captured on CM5 chip
# [7] = biological target: T1, human CD47 protein, His Tag …; assay: ELISA, plate coated with CD47-His
# Experimental: An ELISA binding assay was performed based on human CD47 protein and anti-CD47 chimeric antibodies or anti-CD47 humanized antibodies. […] The wells were aspirated, and non-specific binding sites were blocked by adding 100 L/well of a blocking solution (PBS with 1% (w/v) bovine serum albumin (BSA, Sigma, Cat. No. B2064-100G)) and incubating the plate at 37° C. for 1 h. After the 96-well plate was washed three times with a washing buffer (PBS with 0.01% (w/v) Tween 20 (Sigma, Cat. No. P9416-100ML)), 100 μL/well of 1:4 serial dilutions (from 30 g/mL) of anti-CD47 antibodies (see Table 3 for chimeric antibodies, and see Table 4 for humanized antibodies) in blocking solution were added, and the plate was incubated at room temperature for 2 h. […] After the 96-well plate was washed, 100 μL/well of a substrate solution TMB (TIANGEN, Cat. No. PA107-01) was added, and the 96-well plate was incubated at room temperature for 10 min. 100 μL/well of a stop solution (1 M H₂SO₄) was added to stop the reaction. Colorimetric signals were generated and read at 450 nm using a multifunctional microplate reader (manufacturer: PerkinElmer; model: EnVision). Data were analyzed using GraphPad Prism5, and EC₅₀ was calculated.
# [8] = biological target: T5, human CD47 protein on CHO-K1-CD47 cells (human, UniProt Q08722 19-323); assay: cell binding, CHO-K1-CD47 cells, high content imaging
# T5 construct: whole, on cells; also called CHO-K1 cells expressing human CD47 protein
# Experimental: A cell binding assay of anti-CD47 antibodies (chimeric or humanized) was performed based on the binding to a CHO-K1 cell line stably expressing CD47. CHO-K1-CD47 cells (CHO-K1 cells expressing human CD47 protein) were added to each well of a 96-well plate (Eppendorf, Cat. No. C030730.119) at 1.2×10⁴ cells per well and incubated with anti-CD47 antibodies (20 μg/mL, 1:4 dilution in PBS) at room temperature for 1-2 h. […] The cells were incubated at room temperature for 30 min. The cells were washed three times with PBS buffer. A nuclear dye Hoechst (Sigma, Cat. No. B2261) was diluted with PBS buffer at a dilution ratio of 1:500 and then added to each well at 100 μL/well for staining for 10 min. The cells were washed 3 times with PBS and analyzed using a high content screening system (manufacturer: PerkinElmer; model: Operetta).
# [9] = biological target: T1, human CD47 protein, His Tag …; assay: ELISA, CD47-His coated, competition with Human-SIRPα-mFc
# Experimental: The plate was let stand at 2-8° C. overnight. The wells were aspirated to remove the coating buffer and blocked with 100 μL/well of a blocking solution (PBS with 1% (w/v) bovine serum albumin (BSA, Sigma, Cat. No. B2064-100G)) by incubation at 37° C. for 1 h. The 96-well plate was washed with a washing buffer (PBS with 0.01% (w/v) Tween 20 (Sigma, Cat. No. P9416-100ML)). […] After the 96-well plate was washed with PBS washing buffer, anti-CD47 chimeric antibodies or anti-CD47 humanized antibodies (see Table 8 for chimeric antibodies, and see Table 9 for humanized antibodies) were added. 4-fold dilution was performed with PBS buffer from a starting concentration of 20 μg/mL, with 8 gradients obtained. The plate was incubated at room temperature for 1.5 h. […] After the 96-well plate was washed with PBS buffer, 100 μL/well of a substrate solution TMB (TIANGEN, Cat. No. PA107-01) was added, and the plate was incubated at room temperature for color development for 10 min. 100 μL/well of 1 M H₂SO₄ was added to stop the reaction. Colorimetric signals were generated and read at 450 nm using a multifunctional microplate reader (manufacturer: PerkinElmer; model: EnVision). Data were analyzed using GraphPad Prism5, and EC₅₀ was calculated.
# T2 sequence (A0A2K5X523 entry or part of it limits assumed): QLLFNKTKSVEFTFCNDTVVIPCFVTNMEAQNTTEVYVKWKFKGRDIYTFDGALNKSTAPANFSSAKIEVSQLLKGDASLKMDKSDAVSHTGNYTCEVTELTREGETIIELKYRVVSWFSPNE
Binder,IC50 [1],"rate of phagocytosis, antibody 1 µg/mL (CD47 on HL60 cells)","rate of phagocytosis, antibody 10 µg/mL (CD47 on HL60 cells)",Kd [2],IC50 (CD47 on Jurkat cells),MFI [3],MFI [4],Kd [5],Kd [6],EC50 [7],EC50 [8],IC50 [9]
B1,0.00468 µg/mL,7.1%,3.5%,1.25 nM,27 µg/mL,5300 MFI,952 MFI,0.35 nM,–,–,–,–
B2,–,11.5%,28.8%,2.92 nM,4.86 µg/mL,3320 MFI,1310 MFI,–,9.06 nM,0.0879 µg/mL,2.03 µg/mL,0.946 µg/mL
B3,–,65.7%,59.8%,1.04 nM,0.358 µg/mL,61800 MFI,36100 MFI,–,0.767 nM,1.11 µg/mL,19.8 µg/mL,7.91 µg/mL
